Reference: patent US20260258113A1 (US Dept. of Health and Human Services, published 2026)

Biological target: T1, purified human alpha globin, biotinylated and immobilized on streptavidin biosensors (human, UniProt P69905 2-142, biotinylated using EZ-Link NHS-PEG4 Biotinylation Kit (sites not given))
T1 construct: Ligand on the sensor in the bio-layer interferometry assay; also called full-length alpha globin
Assay: bio-layer interferometry (Octet RED96), biotinylated alpha globin on streptavidin sensors, AHSP in solution at 62.5-1000 nM; AHSP as analyte on immobilized alpha globin (FIG. 2D)

T1 sequence (P69905 2-142 limits assumed): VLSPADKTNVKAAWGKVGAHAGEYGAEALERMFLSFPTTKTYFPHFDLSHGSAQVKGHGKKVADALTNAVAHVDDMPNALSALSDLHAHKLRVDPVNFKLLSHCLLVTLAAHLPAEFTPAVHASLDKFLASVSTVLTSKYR

- Kd: 109 nM
B1: alpha hemoglobin stabilizing protein (other, UniProt Q9NZD4 1-102, looked up)
chain: MALLKANKDLISAGLKEFSVLLNQQVFNDPLVSEEDMVTVVEDWMNFYINYYRQQVTGEPQERDKALQELRQELNTLANPFLAKYRDFLKSHELPSHPPPSS
notes: Comparison analyte in the BLI assay; also called AHSP
